The target of experiment [1] is T1, Human heat shock transcription factor 1 (Hsf1), wild type (human), Q00613.
T1 chain: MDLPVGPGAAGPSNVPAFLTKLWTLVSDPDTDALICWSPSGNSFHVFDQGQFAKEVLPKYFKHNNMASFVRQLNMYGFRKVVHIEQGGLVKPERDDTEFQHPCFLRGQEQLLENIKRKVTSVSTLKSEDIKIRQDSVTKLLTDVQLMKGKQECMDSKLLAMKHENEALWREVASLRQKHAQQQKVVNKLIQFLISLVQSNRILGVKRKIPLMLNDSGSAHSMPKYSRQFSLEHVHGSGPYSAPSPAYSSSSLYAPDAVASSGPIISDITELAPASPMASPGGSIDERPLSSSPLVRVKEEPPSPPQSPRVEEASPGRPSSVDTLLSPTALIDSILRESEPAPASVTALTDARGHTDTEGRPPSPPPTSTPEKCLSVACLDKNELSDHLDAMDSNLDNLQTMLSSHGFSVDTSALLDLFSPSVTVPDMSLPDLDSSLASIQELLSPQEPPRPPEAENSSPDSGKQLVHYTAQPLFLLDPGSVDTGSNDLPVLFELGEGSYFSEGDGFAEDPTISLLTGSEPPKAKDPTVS
The experiment is described as follows: SEC + native gel or EMSA. The settings on record: remark: other sources report otherwise.

In experiment [2] the target is T1, Human heat shock transcription factor 1 …. The experiment is described as follows: native gel or EMSA. As to conditions: remark: other sources report otherwise.

B1: Human heat shock transcription factor 1 (Hsf1), wild type, Q00613 1-529 (natural protein)
chain: MDLPVGPGAAGPSNVPAFLTKLWTLVSDPDTDALICWSPSGNSFHVFDQGQFAKEVLPKYFKHNNMASFVRQLNMYGFRKVVHIEQGGLVKPERDDTEFQHPCFLRGQEQLLENIKRKVTSVSTLKSEDIKIRQDSVTKLLTDVQLMKGKQECMDSKLLAMKHENEALWREVASLRQKHAQQQKVVNKLIQFLISLVQSNRILGVKRKIPLMLNDSGSAHSMPKYSRQFSLEHVHGSGPYSAPSPAYSSSSLYAPDAVASSGPIISDITELAPASPMASPGGSIDERPLSSSPLVRVKEEPPSPPQSPRVEEASPGRPSSVDTLLSPTALIDSILRESEPAPASVTALTDARGHTDTEGRPPSPPPTSTPEKCLSVACLDKNELSDHLDAMDSNLDNLQTMLSSHGFSVDTSALLDLFSPSVTVPDMSLPDLDSSLASIQELLSPQEPPRPPEAENSSPDSGKQLVHYTAQPLFLLDPGSVDTGSNDLPVLFELGEGSYFSEGDGFAEDPTISLLTGSEPPKAKDPTVS
Take B1: the stoichiometry N in experiment [1] is 3; in experiment [2], over 3.

The record behind these values is publication doi:10.1101/803361.
